Source: paper PMC8881573, “Inhibition of SRP-dependent protein secretion by the bacterial alarmone (p)ppGpp” (Nature Communications, 2022)

Tests used:
[1] = target: (Bs)MifM-stalled RNC (B. subtilis | B. subtilis (endogenous in the B. subtilis 168 extract)) (UniProt Q7WY64); assay: cryo-EM structure; (Bs)SRP pre-incubated with pppGpp, tenfold molar excess over MifM-stalled RNCs, 10 min at room temperature
[2] = target: (Bs)MifM-stalled RNC (B. subtilis | B. subtilis (endogenous in the B. subtilis 168 extract)) (UniProt Q7WY64); assay: cryo-EM structure; (Bs)SRP pre-incubated with GMPPNP, tenfold molar excess over MifM-stalled RNCs, 10 min at room temperature

percent of the particles with stably bound SRP (% of the particles) [1]: 38
percent of the particles with stably bound SRP (% of the particles) [2]: 24
Substance: recombinant (Bs)SRP (Ffh and 6S RNA) (from UniProt P37105 1-446) (natural protein)
